Data on 23 molecules can be found in patent publication US20250339569A1 (3B PHARMACEUTICALS, published 2025).

Starred links: 1 amine or outer side, 2 acyl side, 3 side chain; linkers in the order of their positions; H or OH if unused. Positions of bridges follow the written chain, without caps; N, C: chain ends. Non-standard residues stand in square brackets, D forms with d. Primed or numbered codes have the meaning given here. *: point of attachment. Af3(DImAc) = 3-aminophenylalanine acylated on the ring amine with 2-{2,5-dioxo-octahydroimidazo[4,5-d]imidazolidin-1-yl}acetic acid, O=C(CN1C(=O)NC2NC(=O)NC21)Nc1cccc(C[C@H](N[*:1])C(=O)[*:2])c1; Af3(Oa5) = 3-aminophenylalanine with 1,3-oxazole-5-carbonyl on the ring amine, O=C(Nc1cccc(C[C@H](N[*:1])C(=O)[*:2])c1)c1cnco1; Af3(H2N-Succinyl) = 3-aminophenylalanine with succinamoyl on the ring amine, NC(=O)CCC(=O)Nc1cccc(C[C@H](N[*:1])C(=O)[*:2])c1; Aph(Cp) = 4-aminophenylalanine with cyclopentanecarbonyl on the ring amine, O=C(Nc1ccc(C[C@H](N[*:1])C(=O)[*:2])cc1)C1CCCC1; DOTA(In) = O=C1CN2CCN3CCN(CC(=O)*)CCN(CC2)CC(=O)[O][In]([O]1)[O]C(=O)C3; APAc″ = 2-(4-(amino)piperidin-1-yl)acetic acid, NC1CCN(CC(=O)*)CC1; DOTA = O=C(O)CN1CCN(CC(=O)O)CCN(CC(=O)*)CCN(CC(=O)O)CC1; NGly(3-aminopropyl) = O=C(CN(CCCN[*:3])[*:1])[*:2]; Phe(4-tBu) = CC(C)(C)c1ccc(C[C@H](N)C(=O)O)cc1; Pyridine(2,6-diCH2) = c1cc(C[*:1])nc(C[*:2])c1; mXylylene = c1cc(C[*:1])cc(C[*:2])c1; Orn(Me2) = CN(C)CCC[C@H](N)C(=O)O; αMeL = CC(C)C[C@](C)(N)C(=O)O; 4Amb = NCc1ccc(C(=O)O)cc1; AGLU′ = not defined here; Ac6c = NC1(C(=O)O)CCCCC1; Orn = NCCC[C@H](N)C(=O)O; APAc = not defined here; Dab = NCC[C@H](N)C(=O)O; Dap = NC[C@H](N)C(=O)O; Bn = c1ccc(C*)cc1 Bounds are passed on as bounds.

B1: 3BP-4261 (peptide)
peptide: {DOTA-4Amb}-DCE[dP]DWLTW[Dap]C-NH2
modifications: lactam 10-1; linker 2-11 via mXylylene
SMILES: CC(C)C[C@@H]1NC(=O)[C@H](Cc2c[nH]c3ccccc23)NC(=O)[C@H](CC(=O)O)NC(=O)[C@H]2CCCN2C(=O)[C@H](CCC(=O)O)NC(=O)[C@@H]2CSCc3cccc(c3)CSC[C@@H](C(N)=O)NC(=O)[C@H](CNC(=O)C[C@H](NC(=O)c3ccc(CNC(=O)CN4CCN(CC(=O)O)CCN(CC(=O)O)CCN(CC(=O)O)CC4)cc3)C(=O)N2)NC(=O)[C@H](Cc2c[nH]c3ccccc23)NC(=O)[C@H]([C@@H](C)O)NC1=O
B2: 3BP-3958 (peptide)
peptide: Ac-VYCE[dP][Orn]WLEWSC-NH2
modifications: linker 3-12 via mXylylene; lactam 6-9
SMILES: CC(=O)N[C@H](C(=O)N[C@@H](Cc1ccc(O)cc1)C(=O)N[C@H]1CSCc2cccc(c2)CSC[C@@H](C(N)=O)NC(=O)[C@H](CO)NC(=O)[C@H](Cc2c[nH]c3ccccc23)NC(=O)[C@@H]2CCC(=O)NCCC[C@H](NC(=O)[C@H]3CCCN3C(=O)[C@H](CCC(=O)O)NC1=O)C(=O)N[C@@H](Cc1c[nH]c3ccccc13)C(=O)N[C@@H](CC(C)C)C(=O)N2)C(C)C
B3: 3BP-3888 (peptide)
peptide: Ac-VYCK[dP]DWLEWSC-NH2
modifications: linker 3-12 via mXylylene; lactam 4-9
SMILES: CC(=O)N[C@H](C(=O)N[C@@H](Cc1ccc(O)cc1)C(=O)N[C@H]1CSCc2cccc(c2)CSC[C@@H](C(N)=O)NC(=O)[C@H](CO)NC(=O)[C@H](Cc2c[nH]c3ccccc23)NC(=O)[C@@H]2CCC(=O)NCCCC[C@H](NC1=O)C(=O)N1CCC[C@@H]1C(=O)N[C@@H](CC(=O)O)C(=O)N[C@@H](Cc1c[nH]c3ccccc13)C(=O)N[C@@H](CC(C)C)C(=O)N2)C(C)C
B4: 3BP-4052 (peptide)
peptide: {DOTA(In)-APAc}-VYCE[dP]KWLEWSC-NH2
modifications: linker 3-12 via mXylylene; lactam 6-9; reading uncertain; also: indium complexed by DOTA
B5: 3BP-3901 (peptide)
peptide: Ac-VYCE[dP]EWLKWSC-NH2
modifications: linker 3-12 via mXylylene; lactam 6-9
SMILES: CC(=O)N[C@H](C(=O)N[C@@H](Cc1ccc(O)cc1)C(=O)N[C@H]1CSCc2cccc(c2)CSC[C@@H](C(N)=O)NC(=O)[C@H](CO)NC(=O)[C@H](Cc2c[nH]c3ccccc23)NC(=O)[C@@H]2CCCCNC(=O)CC[C@H](NC(=O)[C@H]3CCCN3C(=O)[C@H](CCC(=O)O)NC1=O)C(=O)N[C@@H](Cc1c[nH]c3ccccc13)C(=O)N[C@@H](CC(C)C)C(=O)N2)C(C)C
B6: 3BP-4046 (peptide)
peptide: Ac-VYCE[dP]KWLDWSC-NH2
modifications: linker 3-12 via mXylylene; lactam 6-9
SMILES: CC(=O)N[C@H](C(=O)N[C@@H](Cc1ccc(O)cc1)C(=O)N[C@H]1CSCc2cccc(c2)CSC[C@@H](C(N)=O)NC(=O)[C@H](CO)NC(=O)[C@H](Cc2c[nH]c3ccccc23)NC(=O)[C@@H]2CC(=O)NCCCC[C@H](NC(=O)[C@H]3CCCN3C(=O)[C@H](CCC(=O)O)NC1=O)C(=O)N[C@@H](Cc1c[nH]c3ccccc13)C(=O)N[C@@H](CC(C)C)C(=O)N2)C(C)C
B7: 3BP-3960 (peptide)
peptide: Ac-VYCE[dP][Dab]WLEWSC-NH2
modifications: linker 3-12 via mXylylene; lactam 6-9
SMILES: CC(=O)N[C@H](C(=O)N[C@@H](Cc1ccc(O)cc1)C(=O)N[C@H]1CSCc2cccc(c2)CSC[C@@H](C(N)=O)NC(=O)[C@H](CO)NC(=O)[C@H](Cc2c[nH]c3ccccc23)NC(=O)[C@@H]2CCC(=O)NCC[C@H](NC(=O)[C@H]3CCCN3C(=O)[C@H](CCC(=O)O)NC1=O)C(=O)N[C@@H](Cc1c[nH]c3ccccc13)C(=O)N[C@@H](CC(C)C)C(=O)N2)C(C)C
B8: 3BP-3961 (peptide)
peptide: Ac-VYCE[dP]KW[Ac6c]EWSC-NH2
modifications: linker 3-12 via mXylylene; lactam 6-9
SMILES: CC(=O)N[C@H](C(=O)N[C@@H](Cc1ccc(O)cc1)C(=O)N[C@H]1CSCc2cccc(c2)CSC[C@@H](C(N)=O)NC(=O)[C@H](CO)NC(=O)[C@H](Cc2c[nH]c3ccccc23)NC(=O)[C@@H]2CCC(=O)NCCCC[C@H](NC(=O)[C@H]3CCCN3C(=O)[C@H](CCC(=O)O)NC1=O)C(=O)N[C@@H](Cc1c[nH]c3ccccc13)C(=O)NC1(CCCCC1)C(=O)N2)C(C)C

The target in one experiment is T1, Fc-fusion protein of human carbonic anhydrase IX (human, UniProt Q16790 38-414). In words: SPR, captured hCAIX-Fc; t1/2 category C: 2.1-5.0 min. As for the experimental part: Stock solutions of test compounds were prepared by dissolving each compound in DMSO. DMSO stock solution were diluted 1:1000 in Running Buffer without DMSO. […] SPR binding analyses were performed in Single Cycle Kinetic (SCK) mode at 25° C.
For each test compound, SPR raw data in the form of resonance units (RU) were plotted as sensorgrams using the Biacore™ T200 control software. The signal from the blank sensorgram was subtracted from that of the test compound sensorgram (blank corrected). The blank corrected sensorgram was corrected for baseline drift by subtracting the sensorgram of a SCK run without the test compound (running buffer only). […] Raw data and fit results were imported as text files in IDBS. The pKD value (negative decadic logarithm of dissociation constant) was calculated in the IDBS excel template.
(In general: SPR reads the build-up and loss of mass on a sensor chip optically.)
Take {DOTA-Gab}-DCE[dP]DWLTW[Dap]C-NH2 (lactam 1-10; linker 2-11 via mXylylene) [3BP-4263]: the “t1/2 (half-life of the complex, SPR)” value lay within 2.1 to 5 min.
Same read-out and setting: next, {DOTA-APAc″}-VYCE[dP]D[Af3(DImAc)]LTWSC-NH2 (linker 3-12 via mXylylene) [3BP-4341]: 2.1 to 5 min; B1: 2.1 to 5 min.

A further experiment has as its target human carbonic anhydrase 9 (CAIX) (human, UniProt Q16790 38-459). In words: FACS competition on HT-29 cells, competitor tracer 3BP-2776; category B = pIC50 7.1-8.0. As for the experimental part:
CAIX-expressing human HT-29 colorectal cancer cells (DSMZ, RRID: CVCL_0320) were cultured in McCoys's 5A modified medium (Biochrom, #F1015) including 10% fetal calf serum (FCS), 2 mM L-glutamine, 100 U/ml penicillin and 100 μg/mL streptomycin. Cells were detached with Accutase (Biolegend, #423201) and washed in FACS buffer (PBS including 1% FCS). Cells were diluted in FACS buffer to a final concentration of 500.000 cells per ml. 200 μL of the cell suspension were transferred to a u-shaped non-binding 96-well plate (Greiner) and cells were washed in ice-cold FACS buffer.
When biotinylated compounds were used an additional incubation step with 1 μg/mL APC-Streptavidin (Miltenyi; #130-106-791) in 50 μL FACS buffer for 30 minutes on ice was performed.
Cells were washed twice with ice-cold FACS buffer and analyzed in an Attune NxT flow cytometer (Thermo Fisher). Median fluorescence intensities (MFI) of the APC/Cy5-channel were calculated by Attune NxT software.
In turn, {DOTA-APAc″}-VYCE[dP]D[Phe(4-tBu)]LTWSC-NH2 (linker 3-12 via mXylylene) [3BP-4160] displayed a pIC50 of 7.1 to 8 pic50.
Same read-out and setting: the figure for {DOTA-APAc″}-VYCE[dP]DWLTWSC-NH2 (linker 3-12 via Pyridine(2,6-diCH2)) [3BP-4140] is 7.1 to 8 pic50.
Same read-out and setting: the figure for B2 is 7.1 to 8 pic50; for {DOTA-APAc″}-VYCEG[NGly(3-aminopropyl)]WLEWSC-NH2 (linker 3-12 via mXylylene; lactam 6-9) [3BP-4252] it is 7.1 to 8 pic50; for {DOTA-APAc}-VYCE[dP][Orn(Me2)]WLTWSC-NH2 (linker 3-12 via mXylylene; reading uncertain) [3BP-4098] it is 7.1 to 8 pic50.
Same read-out and setting: the figure for {DOTA-APAc″}-VYCE[dP]D[Af3(Oa5)]LTWSC-NH2 (linker 3-12 via mXylylene) [3BP-4239] is 7.1 to 8 pic50; for B3 it is 7.1 to 8 pic50.
On to {DOTA-APAc}-VYCE[dP]E(AGLU′)WLTWSC-NH2 (linker 3-12 via mXylylene; reading uncertain) [3BP-4120], for which the pIC50 was in the range of 7.1 to 8 pic50.
Take {DOTA-APAc}-VYCE[dK]SWLEWSC-NH2 (linker 3-12 via mXylylene; lactam 5-9; reading uncertain) [3BP-4115]: the pIC50 lay within 7.1 to 8 pic50.
B4 returned a pIC50 of 7.1 to 8 pic50.
Still for that read-out and setting: the figure for B5 is 7.1 to 8 pic50.
The molecule B6 had a pIC50 of 7.1 to 8 pic50.
In turn, {DOTA-APAc}-VYCE[dP]KWLEWSC-NH2 (linker 3-12 via mXylylene; lactam 6-9; reading uncertain) [3BP-3933] displayed a pIC50 of 7.1 to 8 pic50.
Still for that read-out and setting: next, {DOTA-APAc}-VYCE[dP]DY(Bn)LTWSC-NH2 (linker 3-12 via mXylylene; not fully specified; reading uncertain) [3BP-4137]: 7.1 to 8 pic50; {DOTA(In)}-YCE[dP]KWLEWSC-NH2 (linker 2-11 via mXylylene; lactam 5-8; also: indium complexed by DOTA) [3BP-4053]: 7.1 to 8 pic50.
Same read-out and setting: the figure for B7 is 7.1 to 8 pic50; for {DOTA-APAc″}-VYCE[dP]D[Aph(Cp)]LTWSC-NH2 (linker 3-12 via mXylylene) [3BP-4173] it is 7.1 to 8 pic50.
Same read-out and setting: the figure for {DOTA-APAc}-VYCE[dP]DW[αMeL]TWSC-NH2 (linker 3-12 via mXylylene; reading uncertain) [3BP-4106] is 7.1 to 8 pic50; for B8 it is 7.1 to 8 pic50.
{DOTA-APAc″}-VYCE[dP]D[Af3(H2N-Succinyl)]LTWSC-NH2 (linker 3-12 via mXylylene) [3BP-4238] showed a pIC50 of 7.1 to 8 pic50.

A further experiment addresses T1, Fc-fusion protein of human carbonic …. The experiment can be described thus: SPR, captured hCAIX-Fc; pKD category A: >8.0.
In turn, {DOTA-Gab}-DCE[dP]DWLTW[Dap]C-NH2 (lactam 1-10; linker 2-11 via mXylylene) [3BP-4263] came in with a pKD above 8 pkd.
Still for that read-out and setting: next, {DOTA-APAc″}-VYCE[dP]D[Af3(DImAc)]LTWSC-NH2 (linker 3-12 via mXylylene) [3BP-4341]: above 8 pkd; B1: above 8 pkd.
